Laboratory results: PMC4891260 (2015)

Molecular target: T1, DEAD box helicase p68 S551F (mp68) peptide on H-2Kb (mouse)
T1 peptide: SNFVFAGI
Assay: killing

B1: 1D9 TCR (TCR)
alpha TRAV1 TRAJ30 CDR3: CAVRSDTNAYKVIF
beta TRBV19 TRBJ2-7 CDR3: CASSKRLSSYEQYF
B1: recognises.
